Results reported in publication PMC9482650, “Quantitative fragmentomics allow affinity mapping of interactomes” (Nature Communications, 2022).

T1: APBA2_1, Q99767
T1 sequence (Q99767 563-664, limits assumed, looked up): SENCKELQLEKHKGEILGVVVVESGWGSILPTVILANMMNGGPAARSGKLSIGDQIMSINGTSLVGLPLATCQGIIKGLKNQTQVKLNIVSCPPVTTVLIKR

T2: APBA2_2, Q99767
T2 sequence (Q99767 654-744, limits assumed, looked up): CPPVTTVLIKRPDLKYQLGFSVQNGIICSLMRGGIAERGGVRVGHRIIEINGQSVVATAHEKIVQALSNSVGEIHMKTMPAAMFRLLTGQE

T3: ARHGAP21, Q5T5U3
T3 sequence (Q5T5U3 45-169, limits assumed, looked up): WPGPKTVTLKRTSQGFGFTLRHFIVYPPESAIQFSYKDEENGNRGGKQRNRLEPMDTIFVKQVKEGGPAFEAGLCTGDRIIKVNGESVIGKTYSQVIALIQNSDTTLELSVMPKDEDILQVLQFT

T4: DFNB31_2, Q9P202
T4 sequence (Q9P202 274-371, limits assumed, looked up): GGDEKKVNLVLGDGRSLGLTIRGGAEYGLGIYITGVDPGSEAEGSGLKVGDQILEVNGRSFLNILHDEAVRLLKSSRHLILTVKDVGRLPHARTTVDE

T5: DLG3_1, Q92796
T5 sequence (Q92796 125-227, limits assumed, looked up): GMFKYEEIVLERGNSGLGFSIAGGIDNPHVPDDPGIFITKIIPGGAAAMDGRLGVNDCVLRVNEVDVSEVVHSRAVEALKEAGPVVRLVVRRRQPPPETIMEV

T6: GRIP1_7, Q9Y3R0
T6 sequence (Q9Y3R0 999-1096, limits assumed, looked up): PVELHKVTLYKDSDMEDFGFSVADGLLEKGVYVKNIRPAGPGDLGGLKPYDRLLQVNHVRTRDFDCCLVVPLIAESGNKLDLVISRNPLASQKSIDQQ

T7: LRRC7, Q96NW7
T7 sequence (Q96NW7 1440-1537, limits assumed, looked up): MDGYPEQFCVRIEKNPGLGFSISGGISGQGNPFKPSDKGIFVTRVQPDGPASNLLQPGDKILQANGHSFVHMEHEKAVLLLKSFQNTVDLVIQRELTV

T8: NHERF3_1, Q5T2W1
T8 sequence (Q5T2W1 4-100, limits assumed, looked up): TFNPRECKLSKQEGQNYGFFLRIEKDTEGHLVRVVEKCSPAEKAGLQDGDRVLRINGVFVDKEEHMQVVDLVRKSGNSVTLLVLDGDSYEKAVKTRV

T9: NHERF3_3, Q5T2W1
T9 sequence (Q5T2W1 238-333, limits assumed, looked up): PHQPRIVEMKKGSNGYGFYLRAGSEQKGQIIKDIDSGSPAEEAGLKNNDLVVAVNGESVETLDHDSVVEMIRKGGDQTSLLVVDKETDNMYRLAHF

T10: NHERF3_4, Q5T2W1
T10 sequence (Q5T2W1 373-468, limits assumed, looked up): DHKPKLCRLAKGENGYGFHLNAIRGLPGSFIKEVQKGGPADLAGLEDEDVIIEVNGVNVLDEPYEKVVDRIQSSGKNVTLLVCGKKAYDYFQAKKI

T11: PTPN13_1, Q12923
T11 sequence (Q12923 1088-1188, limits assumed, looked up): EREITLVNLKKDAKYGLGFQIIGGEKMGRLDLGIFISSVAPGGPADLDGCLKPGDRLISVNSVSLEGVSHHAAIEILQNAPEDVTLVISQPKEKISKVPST

T12: SIPA1L2, Q9P2F8
T12 sequence (Q9P2F8 945-1036, limits assumed, looked up): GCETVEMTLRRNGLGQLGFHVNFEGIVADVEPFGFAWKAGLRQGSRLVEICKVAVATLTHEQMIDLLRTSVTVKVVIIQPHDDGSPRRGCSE


Key:
Test in all cases: holdup assay
Design in all cases: key: below the threshold = too weak to quantify, mostly under pKd 3.1 to 4
Details in all cases: plain residues with an end cap or a label only (N-terminal biotin on a linker: ado-ado)
APBA2_1, Q99767 = target: T1, APBA2_1, Q99767
APBA2_2, Q99767 = target: T2, APBA2_2, Q99767
ARHGAP21, Q5T5U3 = target: T3, ARHGAP21, Q5T5U3
DFNB31_2, Q9P202 = target: T4, DFNB31_2, Q9P202
DLG1_2, Q12959 = target: DLG1_2, Q12959
Chain of DLG1_2, Q12959 (Q12959 314-412): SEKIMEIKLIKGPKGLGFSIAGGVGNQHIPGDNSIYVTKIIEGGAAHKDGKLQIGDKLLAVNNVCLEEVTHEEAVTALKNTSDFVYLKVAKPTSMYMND

DLG1_3, Q12959 = target: DLG1_3, Q12959
Chain of DLG1_3, Q12959 (Q12959 457-571): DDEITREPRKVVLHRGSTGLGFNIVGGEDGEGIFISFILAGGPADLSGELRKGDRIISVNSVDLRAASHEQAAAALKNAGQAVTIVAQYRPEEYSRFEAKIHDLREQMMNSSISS

DLG2_2, Q15700 = target: DLG2_2, Q15700
Chain of DLG2_2, Q15700 (Q15700 189-283): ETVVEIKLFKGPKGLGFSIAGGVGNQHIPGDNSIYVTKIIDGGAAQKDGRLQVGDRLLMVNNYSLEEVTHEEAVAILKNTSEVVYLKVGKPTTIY

DLG3_1, Q92796 = target: T5, DLG3_1, Q92796
FRMPD2_1, Q68DX3 = target: FRMPD2_1, Q68DX3
Chain of FRMPD2_1, Q68DX3 (Q68DX3 770-861): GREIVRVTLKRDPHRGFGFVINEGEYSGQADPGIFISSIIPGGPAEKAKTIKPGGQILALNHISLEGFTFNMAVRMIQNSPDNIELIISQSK

FRMPD4, Q14CM0 = target: FRMPD4, Q14CM0
Chain of FRMPD4, Q14CM0 (Q14CM0 67-160): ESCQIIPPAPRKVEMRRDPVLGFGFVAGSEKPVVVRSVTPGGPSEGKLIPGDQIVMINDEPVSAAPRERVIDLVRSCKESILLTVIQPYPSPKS

GIPC2, Q8TF65 = target: GIPC2, Q8TF65
Chain of GIPC2, Q8TF65 (Q8TF65 112-203): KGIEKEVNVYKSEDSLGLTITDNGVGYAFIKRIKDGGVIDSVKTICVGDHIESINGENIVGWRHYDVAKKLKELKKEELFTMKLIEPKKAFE

GRID2IP_1, A4D2P6 = target: GRID2IP_1, A4D2P6
Chain of GRID2IP_1, A4D2P6 (A4D2P6 1-87): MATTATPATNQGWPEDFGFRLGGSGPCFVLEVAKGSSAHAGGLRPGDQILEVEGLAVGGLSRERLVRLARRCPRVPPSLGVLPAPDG

GRIP1_7, Q9Y3R0 = target: T6, GRIP1_7, Q9Y3R0
GRIP2_7, Q9C0E4 = target: GRIP2_7, Q9C0E4
Chain of GRIP2_7, Q9C0E4 (Q9C0E4 934-1023): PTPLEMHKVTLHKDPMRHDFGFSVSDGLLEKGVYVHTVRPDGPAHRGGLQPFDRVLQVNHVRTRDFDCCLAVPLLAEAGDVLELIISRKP

HTRA2, O43464 = target: HTRA2, O43464
Chain of HTRA2, O43464 (O43464 355-458): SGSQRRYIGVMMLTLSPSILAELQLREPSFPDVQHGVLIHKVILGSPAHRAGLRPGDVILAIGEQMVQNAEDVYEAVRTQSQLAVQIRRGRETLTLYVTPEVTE

IL16_4, Q14005 = target: IL16_4, Q14005
Chain of IL16_4, Q14005 (Q14005 1229-1329): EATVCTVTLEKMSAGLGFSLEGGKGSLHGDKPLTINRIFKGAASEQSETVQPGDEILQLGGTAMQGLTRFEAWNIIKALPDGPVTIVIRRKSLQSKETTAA

Inadl_2, Q8NI35 = target: Inadl_2, Q8NI35
Chain of Inadl_2, Q8NI35 (Q8NI35 238-335): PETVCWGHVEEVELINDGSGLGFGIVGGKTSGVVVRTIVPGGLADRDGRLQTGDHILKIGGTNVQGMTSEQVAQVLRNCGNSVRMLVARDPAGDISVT

Inadl_5, Q8NI35 = target: Inadl_5, Q8NI35
Chain of Inadl_5, Q8NI35 (Q8NI35 673-780): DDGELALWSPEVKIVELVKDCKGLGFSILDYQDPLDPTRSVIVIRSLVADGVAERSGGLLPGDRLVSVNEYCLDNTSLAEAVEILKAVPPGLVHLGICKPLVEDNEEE

LRRC7, Q96NW7 = target: T7, LRRC7, Q96NW7
MAGI2_2, Q86UL8 = target: MAGI2_2, Q86UL8
Chain of MAGI2_2, Q86UL8 (Q86UL8 410-522): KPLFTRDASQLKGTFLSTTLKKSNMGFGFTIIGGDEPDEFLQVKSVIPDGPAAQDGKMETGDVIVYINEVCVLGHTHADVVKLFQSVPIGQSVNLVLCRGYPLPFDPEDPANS

MAGI2_3, Q86UL8 = target: MAGI2_3, Q86UL8
Chain of MAGI2_3, Q86UL8 (Q86UL8 600-682): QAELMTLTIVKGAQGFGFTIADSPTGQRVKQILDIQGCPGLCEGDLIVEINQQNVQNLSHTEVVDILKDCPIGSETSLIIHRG

NHERF3_1, Q5T2W1 = target: T8, NHERF3_1, Q5T2W1
NHERF3_3, Q5T2W1 = target: T9, NHERF3_3, Q5T2W1
NHERF3_4, Q5T2W1 = target: T10, NHERF3_4, Q5T2W1
PTPN13_1, Q12923 = target: T11, PTPN13_1, Q12923
SIPA1L2, Q9P2F8 = target: T12, SIPA1L2, Q9P2F8

Binder	pKd (APBA2_1, Q99767)	pKd (APBA2_2, Q99767)	pKd (ARHGAP21, Q5T5U3)	pKd (DFNB31_2, Q9P202)	pKd (DLG1_2, Q12959)	pKd (DLG1_3, Q12959)	pKd (DLG2_2, Q15700)	pKd (DLG3_1, Q92796)	pKd (FRMPD2_1, Q68DX3)	pKd (FRMPD4, Q14CM0)	pKd (GIPC2, Q8TF65)	pKd (GRID2IP_1, A4D2P6)	pKd (GRIP1_7, Q9Y3R0)	pKd (GRIP2_7, Q9C0E4)	pKd (HTRA2, O43464)	pKd (IL16_4, Q14005)	pKd (Inadl_2, Q8NI35)	pKd (Inadl_5, Q8NI35)	pKd (LRRC7, Q96NW7)	pKd (MAGI2_2, Q86UL8)	other results
LLQEEWETVM [PTH1R, Q03431]	below the threshold	below the threshold	4.11	below the threshold	below the threshold	below the threshold	below the threshold	below the threshold	below the threshold	4.12	below the threshold	below the threshold	below the threshold	below the threshold	below the threshold	3.93	below the threshold	below the threshold	below the threshold	below the threshold	pKd (MAGI2_3, Q86UL8): 3.59; pKd (NHERF3_1, Q5T2W1): 5.63; pKd (NHERF3_3, Q5T2W1): below the threshold; pKd (NHERF3_4, Q5T2W1): 4.64; pKd (PTPN13_1, Q12923): below the threshold; pKd (SIPA1L2, Q9P2F8): below the threshold
SSSVNVSSNL [CXCR1, P25024]	below the threshold	below the threshold	3.77	below the threshold	below the threshold	below the threshold	below the threshold	below the threshold	below the threshold	3.57	below the threshold	below the threshold	below the threshold	below the threshold	below the threshold	below the threshold	below the threshold	below the threshold	below the threshold	below the threshold	pKd (MAGI2_3, Q86UL8): 3.5; pKd (NHERF3_1, Q5T2W1): 4.43; pKd (NHERF3_3, Q5T2W1): below the threshold; pKd (NHERF3_4, Q5T2W1): below the threshold; pKd (PTPN13_1, Q12923): below the threshold; pKd (SIPA1L2, Q9P2F8): below the threshold
NNMAFETTHF [SLC5A12, Q1EHB4]	below the threshold	below the threshold	3.94	below the threshold	below the threshold	below the threshold	below the threshold	below the threshold	below the threshold	below the threshold	below the threshold	below the threshold	below the threshold	below the threshold	below the threshold	below the threshold	below the threshold	below the threshold	below the threshold	below the threshold	pKd (MAGI2_3, Q86UL8): below the threshold; pKd (NHERF3_1, Q5T2W1): 5.03; pKd (NHERF3_3, Q5T2W1): below the threshold; pKd (NHERF3_4, Q5T2W1): 4.57; pKd (PTPN13_1, Q12923): below the threshold; pKd (SIPA1L2, Q9P2F8): below the threshold
HLSTRQGTCV [ATRNL1, Q5VV63]	below the threshold	below the threshold	below the threshold	below the threshold	4.55	3.58	4.21	3.84	4.1	3.51	below the threshold	below the threshold	below the threshold	below the threshold	below the threshold	below the threshold	below the threshold	4.04	3.63	4.73	pKd (MAGI2_3, Q86UL8): below the threshold; pKd (NHERF3_1, Q5T2W1): 3.87; pKd (NHERF3_3, Q5T2W1): below the threshold; pKd (NHERF3_4, Q5T2W1): below the threshold; pKd (PTPN13_1, Q12923): below the threshold; pKd (SIPA1L2, Q9P2F8): below the threshold
